Measured values published in publication doi:10.1101/2020.09.13.295345 (bioRxiv, 2020).

Biological target: the molecule itself
Experiment: native gel or EMSA

| Protein | binding result |
| --- | --- |
| ΔNClpB, Thermus thermophilus ClpB lacking the N-terminal domain (domain or fragment) not shown | binds |
| Thermus thermophilus ClpB, full-length (natural protein) not shown | binds |
